In paper PMC4546403:

B1: Drosophila Smo (dSmo): dSmoNQ5 (protein)
parent chain: MQYLNFPRMPNIMMFLEVAILCLWVVADASASSAKFGSTTPASAQQSDVELEPINGTLNYRLYAKKGRDDKPWFDGLDSRHIQCVRRARCYPTSNATNTCFGSKLPYELSSLDLTDFHTEKELNDKLNDYYALKHVPKCWAAIQPFLCAVFKPKCEKINGEDMVYLPSYEMCRITMEPCRILYNTTFFPKFLRCNETLFPTKCTNGARGMKFNGTGQCLSPLVPTDTSASYYPGIEGCGVRCKDPLYTDDEHRQIHKLIGWAGSICLLSNLFVVSTFFIDWKNANKYPAVIVFYINLCFLIACVGWLLQFTSGSREDIVCRKDGTLRHSEPTAGENLSCIVIFVLVYYFLTAGMVWFVFLTYAWHWRAMGHVQDRIDKKGSYFHLVAWSLPLVLTITTMAFSEVDGNSIVGICFVGYINHSMRAGLLLGPLCGVILIGGYFITRGMVMLFGLKHFANDIKSTSASNKIHLIIMRMGVCALLTLVFILVAIACHVTEFRHADEWAQSFRQFIICKISSVFEEKSSCRIENRPSVGVLQLHLLCLFSSGIVMSTWCWTPSSIETWKRYIRKKCGKEVVEEVKMPKHKVIAQTWAKRKDFEDKGRLSITLYNTHTDPVGLNFDVNDLNSSETNDISSTWAAYLPQCVKRRMALTGAATGNSSSHGPRKNSLDSEISVSVRHVSVESRRNSVDSQVSVKIAEMKTKVASRSRGKHGGSSSNRRTQRRRDYIAAATGKSSRRRESSTSVESQVIALKKTTYPNASHKVGVFAHHSSKKQHNYTSSMKRRTANAGLDPSILNEFLQKNGDFIFPFLQNQDMSSSSEEDNSRASQKIQDLNVVVKQQEISEDDHDGIKIEELPNSKQVALENFLKNIKKSNESNSNRHSRNSARSQSKKSQKRHLKNPAADLDFRKDCVKYRSNDSLSCSSEELDVALDVGSLLNSSFSGISMGKPHSRNSKTSCDVGIQANPFELVPSYGEDELQQAMRLLNAASRQRTEAANEDFGGTELQGLLGHSHRHQREPTFMSESDKLKMLLLPSK
B2: Drosophila Smo (dSmo): dSmoN213Q,N336Q (protein)
parent chain: MQYLNFPRMPNIMMFLEVAILCLWVVADASASSAKFGSTTPASAQQSDVELEPINGTLNYRLYAKKGRDDKPWFDGLDSRHIQCVRRARCYPTSNATNTCFGSKLPYELSSLDLTDFHTEKELNDKLNDYYALKHVPKCWAAIQPFLCAVFKPKCEKINGEDMVYLPSYEMCRITMEPCRILYNTTFFPKFLRCNETLFPTKCTNGARGMKFNGTGQCLSPLVPTDTSASYYPGIEGCGVRCKDPLYTDDEHRQIHKLIGWAGSICLLSNLFVVSTFFIDWKNANKYPAVIVFYINLCFLIACVGWLLQFTSGSREDIVCRKDGTLRHSEPTAGENLSCIVIFVLVYYFLTAGMVWFVFLTYAWHWRAMGHVQDRIDKKGSYFHLVAWSLPLVLTITTMAFSEVDGNSIVGICFVGYINHSMRAGLLLGPLCGVILIGGYFITRGMVMLFGLKHFANDIKSTSASNKIHLIIMRMGVCALLTLVFILVAIACHVTEFRHADEWAQSFRQFIICKISSVFEEKSSCRIENRPSVGVLQLHLLCLFSSGIVMSTWCWTPSSIETWKRYIRKKCGKEVVEEVKMPKHKVIAQTWAKRKDFEDKGRLSITLYNTHTDPVGLNFDVNDLNSSETNDISSTWAAYLPQCVKRRMALTGAATGNSSSHGPRKNSLDSEISVSVRHVSVESRRNSVDSQVSVKIAEMKTKVASRSRGKHGGSSSNRRTQRRRDYIAAATGKSSRRRESSTSVESQVIALKKTTYPNASHKVGVFAHHSSKKQHNYTSSMKRRTANAGLDPSILNEFLQKNGDFIFPFLQNQDMSSSSEEDNSRASQKIQDLNVVVKQQEISEDDHDGIKIEELPNSKQVALENFLKNIKKSNESNSNRHSRNSARSQSKKSQKRHLKNPAADLDFRKDCVKYRSNDSLSCSSEELDVALDVGSLLNSSFSGISMGKPHSRNSKTSCDVGIQANPFELVPSYGEDELQQAMRLLNAASRQRTEAANEDFGGTELQGLLGHSHRHQREPTFMSESDKLKMLLLPSK

Key:
[1] = western blot of Cl8 cell lysates; settings: glycan lost; control: wild type dSmo
[2] = western blot of wing imaginal disc lysates; settings: glycan lost; control: wild type dSmo transgene
[3] = cycloheximide chase, Cl8 cells, densitometry; settings: glycan lost; control: wild type dSmo
[4] = immunofluorescence, Hh-induced plasma membrane vs ER marker, Cl8; settings: glycan lost; control: wild type dSmo

Row | Protein | expression_or_secretion [1] | expression_or_secretion [2] | degradation_or_half_life, half_life [3] | localisation_or_trafficking [4]
1 | B1 | increases | no change | increases, ~4 vs ~1 | abolishes
2 | B2 | – | increases | – | –
